Results on one molecule are retold here after patent publication US20060217308A1, “Compositions for the treatment of tumor pathologies, comprising internalin B (ln1B) of Listeria monocytogene protein or a fragment thereof” (priority 2005, published 2006).

What all share (format): cell-based, human
The subject of experiment [1] is Met. Put plainly: Nature of In1B-dependent ubiquitination of Met (FK1 versus P4D1 antibodies). The settings on record: HeLa cells, In1B 5 nM, FK1 did not recognize. On the procedure: (A) In1B was added (+) to HeLa cells. Lysates were immunoprecipitated using C12 rabbit polyclonal anti-Met antibody and blotted against Met (DL21 mAb). The same membrane was stripped and blotted against ubiquitin using FK1, a mAb that recognizes poly-ubiquitinated proteins, or P4D1, a mAb that recognizes both poly- and mono-ubiquitinated proteins. (B) Total cell extracts from Hela cells treated with […] epoximycin (lane 2) or […] clasto-lactacystin-β-lactone (lane 3) for 60 minutes, or non-treated cells (lane 1) were blotted against poly-ubiquitin (FK1) or actin. (C) ubiquitin ladder was blotted with FK1 or P4D1. The number of ubiquitin modules is indicated on the right. The molecular weight of protein markers is shown in the left of the panels, in kDa. In D and E, Hela Cells were transfected with siRNA to knock down Cbl expression (RNAi), or with RNA control (Control). (D) Cellular Cbl and actin were detected by immunoblotting. […]
The rapid degradation of Met after In B contact is different from the HGF-dependent degradation, which has been reported to take two hours (19-21), indicating differences in the biochemistry of the process. […] Samples from HeLa cells treated with In1B (5 nM) were immunoprecipitated using an anti-Met antibody, and then Met-immunoprecipitates were analyzed with an anti Met mAb (FIG. 3A1), FK1 (FIG. 3A2) or P4D1 (FIG. 3A3). […]

In experiment [2] the test system is Met. Put plainly: Cell surface biotinylation and internalization assay of Met. The settings on record: HeLa cells, In1B two minutes. As for the experimental part:
(A) Hela cells were treated (+) with […] epoximycin, […] clasto-lactacystin-β-lactone (lactone), 20 mM ammonium chloride, or 5 μM bafilomycin A1 (Baf-A1) for 90 minutes before addition of In1B. Cell extracts were loaded in a SDS-PAGE gel followed by immunoblot with anti-Met antibody. […] (B) Surface exposed proteins of Hela cells were biotinylated (Biot +) before addition of In1B. In1B was added for two minutes to allow internalization of Met, then cells were washed and biotin was removed (see methods and text) from the surface. Samples were precipitated with neutravidin agarose and blotted against Met.
Cell surface biotinylation and internalization assay were performed as described before (35). Briefly, the cells were washed in ice-cold PBS, and incubated with 25 mg/ml EZ-link Sulfo-NHS-SS-biotin (Pierce) 15 minutes in PBS pH 8.0, and followed by one wash with serum free media containing 0.1% BSA, followed by one wash in PBS containing Ca and Mg (PBS+CaMg; Gibco). The cells were then warmed to 37° C., incubated with In1B for two minutes, and then cooled down to 4° C. The cells were washed again with PBS+CaMg, and cell-surface debiotinylation was performed by adding 100 mM MESNA in 50 mM Tris-HCl pH 8.6, 100 mM NaCl, 1 mM EDTA and 0.2% BSA (3 times, 10 minutes incubation). […]

In experiment [3] the test system is Met. Put plainly: In1B-induced degradation of Met, anti-Met immunoblot of total HeLa cell extracts. On the procedure:
FIG. 2 depicts the degradation and de-novo synthesis of Met. (A) HeLa cells were treated at the indicated times with 5 nM In1B and cellular extracts were blotted against Met. (B) Cells were treated as in A, but blotted at the same time with anti-Met antibody and Streptavidin. Stars indicate nonspecific bands recognized by streptavidin and the square indicates Met. (C) The experiment was performed as in A, but cells were pre-treated with […] of cycloheximide for 90 minutes before addition of In1B. (D) This experiment was performed as in A, but In1B was removed three minutes after it was added. Actin is shown as the loading control in A, C and D. The molecular mass of the markers is indicated in kDa.
Cells, bacteria and growth conditions. The human cell line used was HeLa (ATCC number CCL-2) grown as recommended by ATCC. Typically, cells were serum starved for three hours before the addition of In1B. The bacterial strains used were Listeria monocytogenes BUG600 and BUG1461. They were grown in BHI medium, which in the case […] contained 5 μg/ml of erythromycin.
Assays. Immunoprecipitation, Re-immunoprecipitation, and immunoblots were performed as described before (31). In1B purification was performed as described (54).
To study In1B-induced degradation of Met in more detail, HeLa cells were treated during increasing periods with In1B (5 nM) and anti-Met immunoblots were performed directly on total cell extracts (FIG. 2A).
When In1B is present, de-novo synthesized Met was in turn ubiquitinated and then degraded (FIG. 2A).
On the technique in general: In western blotting, separated proteins are transferred to a membrane and probed.

Experiment [4] concerns Met. Put plainly: Kinetics of phosphorylation of Met after In1B (IP Met, blot phospho-tyrosine). The settings on record: HeLa cells, In1B 5 nM (FIG. 8). On the procedure: FIG. 8 depicts the kinetics of phosphorylation and ubiquitination of Met. 5 nm of purified In1B was added to HeLa cells for the indicated times. Cell extracts were immunoprecipitated (IP) against Met and blotted (WB) against phospho-tyrosine (P-Tyr), Met or ubiquitin (Ub).
Ligand-induced ubiquitination of RTKs is preceded by phosphorylation of the receptor, which is then recognized and ubiquitinated by the ubiquitin ligase Cbl (33). As previously shown (27), In1B rapidly stimulates Met phosphorylation and the kinetics of ubiquitination of Met follows that of phosphorylation with a maximum at two minutes after stimulation (FIG. 8).

Sequence of Met (P08581 25-1390): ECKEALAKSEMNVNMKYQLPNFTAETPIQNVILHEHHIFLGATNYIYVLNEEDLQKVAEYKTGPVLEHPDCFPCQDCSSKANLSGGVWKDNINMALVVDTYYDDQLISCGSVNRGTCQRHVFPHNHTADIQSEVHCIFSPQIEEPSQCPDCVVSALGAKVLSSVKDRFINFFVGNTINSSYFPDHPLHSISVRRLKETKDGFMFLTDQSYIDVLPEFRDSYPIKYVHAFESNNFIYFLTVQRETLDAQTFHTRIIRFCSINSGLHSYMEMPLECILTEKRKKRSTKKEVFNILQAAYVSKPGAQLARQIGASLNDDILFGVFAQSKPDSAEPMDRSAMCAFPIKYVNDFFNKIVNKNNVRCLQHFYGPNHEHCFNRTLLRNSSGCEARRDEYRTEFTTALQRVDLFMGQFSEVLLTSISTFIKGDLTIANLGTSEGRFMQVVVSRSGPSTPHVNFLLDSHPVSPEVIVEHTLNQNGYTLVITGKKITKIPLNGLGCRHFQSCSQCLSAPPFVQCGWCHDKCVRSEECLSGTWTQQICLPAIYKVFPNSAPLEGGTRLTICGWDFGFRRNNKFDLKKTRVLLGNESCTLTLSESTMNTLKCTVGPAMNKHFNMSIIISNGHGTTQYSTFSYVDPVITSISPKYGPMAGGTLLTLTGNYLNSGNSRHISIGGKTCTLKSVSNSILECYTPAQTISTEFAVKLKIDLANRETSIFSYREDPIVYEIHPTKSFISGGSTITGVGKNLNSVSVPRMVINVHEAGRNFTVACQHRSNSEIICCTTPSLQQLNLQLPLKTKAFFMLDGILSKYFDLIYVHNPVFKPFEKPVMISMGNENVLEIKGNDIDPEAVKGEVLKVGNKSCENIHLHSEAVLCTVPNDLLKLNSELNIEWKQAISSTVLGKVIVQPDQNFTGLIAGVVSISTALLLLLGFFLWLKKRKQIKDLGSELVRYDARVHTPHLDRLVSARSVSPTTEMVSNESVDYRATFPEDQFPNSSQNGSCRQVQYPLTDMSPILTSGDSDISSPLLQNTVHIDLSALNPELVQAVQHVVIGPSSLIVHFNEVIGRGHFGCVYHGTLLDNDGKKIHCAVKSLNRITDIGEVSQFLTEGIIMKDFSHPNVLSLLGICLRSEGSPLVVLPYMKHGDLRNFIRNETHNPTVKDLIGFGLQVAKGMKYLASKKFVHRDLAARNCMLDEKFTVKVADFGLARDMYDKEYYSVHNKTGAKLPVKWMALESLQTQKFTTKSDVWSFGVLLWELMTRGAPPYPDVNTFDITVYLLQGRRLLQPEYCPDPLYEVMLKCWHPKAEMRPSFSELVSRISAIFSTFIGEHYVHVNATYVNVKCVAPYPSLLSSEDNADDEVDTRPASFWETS

B1: In1B: Listeria monocytogenes surface protein of the internalin family that interacts with Met; purified soluble protein (protein, UniProt P0DQD2 31-630, looked up)
Internalin B: AKVQAETITVPTPIKQIFSDDAFAETIKDNLKKKSVTDAVTQNELNSIDQIIANNSDIKSVQGIQYLPNVTKLFLNGNKLTDIKPLANLKNLGWLFLDENKVKDLSSLKDLKKLKSLSLEHNGISDINGLVHLPQLESLYLGNNKITDITVLSRLTKLDTLSLEDNQISDIVPLAGLTKLQNLYLSKNHISDLRALAGLKNLDVLELFSQECLNKPINHQSNLVVPNTVKNTDGSLVTPEIISDDGDYEKPNVKWHLPEFTNEVSFIFYQPVTIGKAKARFHGRVTQPLKEVYTVSYDVDGTVIKTKVEAGTRITAPKPPTKQGYVFKGWYTEKNGGHEWNFNTDYMSGNDFTLYAVFKAETTEKAVNLTRYVKYIRGNAGIYKLPREDNSLKQGTLASHRCKALTVDREARNGGKLWYRLKNIGWTKAENLSLDRYDKMEYDKGVTAYARVRNASGNSVWTKPYNTAGAKHVNKLSVYQGKNMRILREAKTPITTWYQFSIGGKVIGWVDTRALNTFYKQSMEKPTRLTRYVSANKAGESYYKVPVADNPVKRGTLAKYKNQKLIVDCQATIEGQLWYRIRTSSTFIGWTKAANLRAQK
For the molecule B1, in experiment [1], the “nature of In1B-dependent ubiquitination of Met” value is recorded as “mono-ubiquitination rather than poly-ubiquitination”. For the same molecule, the “endocytosis of Met (protection of biotinylated Met from MESNA de-biotinylation)” value in experiment [2] is “protected Met from de-biotinylation”. In addition, the “time after addition at which In1B-induced degradation of Met is observable” value in experiment [3] was “one”. For the same molecule, in experiment [3] (HeLa cells, In1B 5 nM, 2 minutes), the “total amount of Met two minutes after addition of In1B” value is recorded as “strongly reduced”. In addition, the “specificity of the In1B effect for Met versus other cellular proteins” value in experiment [3] (HeLa cells, In1B 5 nM, blot with anti-Met antibody and Streptavidin, actin control) is “only affected the amount of Met”. Further, in experiment [3] (HeLa cells, In1B removed three minutes after addition, 15 minutes after initial exposure), the “degradation of re-synthesized Met when In1B was removed from the medium” value is given as “no degradation of Met was observed”. Further, the “time of maximum of Met phosphorylation and ubiquitination after stimulation” value in experiment [4] is recorded as “two”.
